Measurements from the supplement of paper PMC9732359.
± gives the uncertainty stated by the source.

Assay: protein stability index of a GFP-peptide fusion (yeast GPS) (PSI 1-4); higher = more stable; sorted into four equal gates, so the index is relative within each strain
Summary of the method: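 Tiled yeast protein peptides of 17 residues were each joined downstream of GFP, on plasmids that also express Cherry. The pooled library was maintained in yeast, and mid-log cultures in leucine-free medium were sorted into four equal gates on the GFP/Cherry ratio. Plasmids from every gate were amplified by PCR and sequenced on Illumina, with barcodes linking reads to strains. The protein stability index of a peptide is its gate-number-weighted read frequency summed over the gates.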

Sequence	protein stability index (doa10∆)	protein stability index (pdr5∆)	protein stability index (san1∆)	protein stability index (ubr1∆)
ATKAINGCIFTLNPKTG [PRP8]	2.79 ± 0.095	2.73 ± 0.076	2.71 ± 0.059	2.88 ± 0.062
ATLGIDPPKGILLYGPP [RPT1]	2.97 ± 0.078	2.96 ± 0.077	2.95 ± 0.13	2.98 ± 0.047
ATNTFGSNQQSSTGGGL [YGR119C/NUP57]	2.89 ± 0.12	3.23 ± 0.076	3.15 ± 0.13	2.9 ± 0.075
ATSDNKTTNTTPSFSFG [YJL041W/NSP1]	3.13 ± 0.063	3.05 ± 0.076	3.09 ± 0.032	3.1 ± 0.042
ATSSTNANAGLFNKPPS [YOR098C/NUP1]	2.86 ± 0.053	3.06 ± 0.073	3.05 ± 0.079	3.3 ± 0.058
ATVPSGRPETYIWRYLP [RPO31]	2.27 ± 0.12	1.81 ± 0.092	1.16 ± 0.16	1.49 ± 0.11
AVATPKAEVTQLSNGIV [COR1]	2.77 ± 0.074	3.11 ± 0.066	3.12 ± 0.053	2.88 ± 0.045
AVDAKQLAQIRQFLKAN [YML103C/NUP188]	2.58 ± 0.12	3.06 ± 0.079	2.96 ± 0.093	2.78 ± 0.067
AVKDQQKYTKEMIDSHI [SNF2]	2.8 ± 0.062	2.68 ± 0.051	2.38 ± 0.068	2.95 ± 0.043
AVKLGDLKKFTSTITKY [RPN3]	2.1 ± 0.056	2.51 ± 0.044	2.27 ± 0.066	2.56 ± 0.035
AVNMTQNIMTLPDGKNG [MED6]	2.79 ± 0.11	3.04 ± 0.056	2.67 ± 0.059	3.07 ± 0.062
AVTEATSTNGDSENNEE [RGR1]	3.13 ± 0.14	3.3 ± 0.076	3.36 ± 0.068	3.08 ± 0.073
AVVGQQIISGNRVPDGF [RPO31]	–	3.28 ± 0.28	2.88 ± 0.2	2.65 ± 0.13
AVVVGTGNIKHEDLVNS [COR1]	3.05 ± 0.11	2.79 ± 0.12	2.93 ± 0.077	2.71 ± 0.11
AVYFADTSGLKISNSEF [SIN4]	2.96 ± 0.072	3.32 ± 0.08	3.1 ± 0.049	3.18 ± 0.063
AYSMGAQNQGGQVSMSQ [PGD1]	3.15 ± 0.095	3.2 ± 0.084	3.02 ± 0.094	3.22 ± 0.076
AYVVNDTAPKPNIVEID [DLS1]	3.26 ± 0.24	3.22 ± 0.19	2.97 ± 0.11	3.15 ± 0.19
CAYTGTGDVLLIQDLLH [RPN1]	3.01 ± 0.059	2.88 ± 0.064	2.75 ± 0.065	2.8 ± 0.052
CCINAAFLALVDAGIAL [RRP46]	2.37 ± 0.078	2.88 ± 0.07	2.06 ± 0.061	2.62 ± 0.051
CCTKFFTMMTSEPLTLK [PCI8]	2.03 ± 0.07	2.15 ± 0.057	1.98 ± 0.12	1.64 ± 0.053
CDYYNTFLLNNKNIDIG [RPN2]	3.14 ± 0.087	3.04 ± 0.076	2.85 ± 0.069	2.79 ± 0.086
CEISGSIEQLRNVVEDI [BRN1]	3.25 ± 0.18	3.33 ± 0.2	3.09 ± 0.19	–
CFMHLLVQLFLWDSKEL [RPN3]	1.23 ± 0.078	1.6 ± 0.064	1.61 ± 0.15	1.54 ± 0.15
CINELDNWNAPLIMATC [RPO31]	3.18 ± 0.16	2.66 ± 0.14	3.3 ± 0.07	3.54 ± 0.12
CKLFDKISFNLRLKLFL [SRB8]	1.41 ± 0.069	1.23 ± 0.055	1.2 ± 0.086	1.18 ± 0.046
CLNCEKSKLFEWKSEFV [SNM1]	2.61 ± 0.14	2.68 ± 0.13	2.97 ± 0.067	2.7 ± 0.12
CLSPGAFLSKVPEFFQT [SRP14]	2.73 ± 0.098	2.44 ± 0.13	2.87 ± 0.17	2.6 ± 0.068

Sequence	protein stability index (doa10∆)	protein stability index (pdr5∆)	protein stability index (san1∆)	protein stability index (ubr1∆)
CMEVASAFMKFSKAIEW [BRR2]	2.12 ± 0.064	2.21 ± 0.047	2.42 ± 0.068	1.98 ± 0.043
CRDSDDHKRFIVFHNEF [DIS3]	3.02 ± 0.1	3.26 ± 0.084	2.33 ± 0.2	3.23 ± 0.065
CRQEFLERVKANAAKRA [RPL21A]	–	1.33 ± 0.23	–	–
CRSCPYEFPIEGIEIYD [RPC11]	1.73 ± 0.078	2.32 ± 0.11	1.85 ± 0.11	2.08 ± 0.093
CTEAGLLALRERRMQVT [RPT2]	2.17 ± 0.092	2.9 ± 0.15	2.33 ± 0.14	2.7 ± 0.11
CTESTRENALYDYYALQ [SNF2]	1.83 ± 0.078	2.25 ± 0.064	2.99 ± 0.048	2.91 ± 0.083
CTQMTDEGLLNMVSLRG [GRR1]	2.78 ± 0.1	2.66 ± 0.083	2.22 ± 0.088	2.02 ± 0.054
CVAAWGVCNHAFHLHCI [HRT1]	1.69 ± 0.05	1.75 ± 0.065	1.52 ± 0.076	2.28 ± 0.045
CWLSNIDIQTQDLNQRF [RRI1]	2.72 ± 0.11	3.23 ± 0.11	3.24 ± 0.072	3.17 ± 0.079
DAHGVTQARVITGNKIM [RPS13]	2.21 ± 0.088	1.61 ± 0.071	1.22 ± 0.12	1.56 ± 0.062
DAIIPFAAIPEQGIELE [FAS2]	3.12 ± 0.15	2.84 ± 0.2	3.42 ± 0.084	3.41 ± 0.1
DAITVKDVKAWAGKRLW [COR1]	3.01 ± 0.069	2.8 ± 0.067	2.87 ± 0.063	2.37 ± 0.044
DAKKARFWSFMKTQRFV [SIR4]	2.6 ± 0.096	2.88 ± 0.069	2.67 ± 0.069	2.75 ± 0.066
DAKSTPLRLRLYDNFVS [RPN9]	3.3 ± 0.083	3.22 ± 0.088	3.21 ± 0.063	2.87 ± 0.082
DALLNSTTEHINIDDLL [YJL039C/NUP192]	2.47 ± 0.24	2.73 ± 0.12	2.59 ± 0.092	3.17 ± 0.059
DATANATANATANATAN [DSN1]	3.25 ± 0.086	3.04 ± 0.071	3.37 ± 0.053	3.12 ± 0.043
DATRVFVNGVWHGVHRN [RPB2]	3.04 ± 0.093	3.35 ± 0.071	3.28 ± 0.048	3.27 ± 0.066
DDDEIVMPVPNVRSSVL [SKP1]	2.42 ± 0.053	2.25 ± 0.058	2.45 ± 0.062	2.48 ± 0.051
DDENEPKRKRRLPVSED [YOR098C/NUP1]	3.34 ± 0.1	3.28 ± 0.14	3.09 ± 0.087	3.06 ± 0.072
DDFTNELKAELDRYKRE [SEM1]	3.09 ± 0.17	3.36 ± 0.14	2.97 ± 0.11	3.47 ± 0.24
DDIFIPQNMLFEGCYYT [RPC25]	2.51 ± 0.17	2.89 ± 0.23	2.43 ± 0.12	2.76 ± 0.12
DDIFIRYLTLLSNEFTA [ECM29]	2.14 ± 0.056	1.91 ± 0.051	2.44 ± 0.074	1.76 ± 0.029
DDLPYYVNALADVLYKT [QCR2]	2.78 ± 0.061	2.86 ± 0.052	2.63 ± 0.045	2.63 ± 0.042
DDPSKVRLLCRSDGMGN [YLR335W/NUP2]	2.94 ± 0.26	3.66 ± 0.19	2.98 ± 0.16	2.96 ± 0.15
DDQLKQRRQNIRDLEKL [RPT4]	2.81 ± 0.23	3.11 ± 0.29	3.12 ± 0.13	3.15 ± 0.16
DDSLNRLAQNDGLLKNV [RPS21A]	2.77 ± 0.15	3.04 ± 0.12	3.16 ± 0.13	3.38 ± 0.18
DDYEDQDDDDYVDTATA [IRR1]	3.14 ± 0.08	3.47 ± 0.071	2.93 ± 0.093	3.22 ± 0.049
